Assays:
FGFR1 = FGFR1 (UniProt P11362); assay: phosphorylation enrichment, bacterial display (enrichment ratio); higher = better substrate or ligand; peptides without Tyr show the background
c-Abl (mouse) = assay: as above
FGFR3 = FGFR3 (UniProt P22607); assay: as above
EPHB2 = EPHB2 (UniProt P29323); assay: as above
Fer (mouse) = assay: as above
c-Src = assay: as above
AncSZ = assay: as above
EPHB1 = EPHB1 (UniProt P54762); assay: as above
Hck = Hck (UniProt P08631); assay: as above
MERTK = MERTK (UniProt Q12866); assay: as above
Fyn = Fyn (UniProt P06241); assay: as above
Sequence of Fyn (P06241 whole entry, looked up): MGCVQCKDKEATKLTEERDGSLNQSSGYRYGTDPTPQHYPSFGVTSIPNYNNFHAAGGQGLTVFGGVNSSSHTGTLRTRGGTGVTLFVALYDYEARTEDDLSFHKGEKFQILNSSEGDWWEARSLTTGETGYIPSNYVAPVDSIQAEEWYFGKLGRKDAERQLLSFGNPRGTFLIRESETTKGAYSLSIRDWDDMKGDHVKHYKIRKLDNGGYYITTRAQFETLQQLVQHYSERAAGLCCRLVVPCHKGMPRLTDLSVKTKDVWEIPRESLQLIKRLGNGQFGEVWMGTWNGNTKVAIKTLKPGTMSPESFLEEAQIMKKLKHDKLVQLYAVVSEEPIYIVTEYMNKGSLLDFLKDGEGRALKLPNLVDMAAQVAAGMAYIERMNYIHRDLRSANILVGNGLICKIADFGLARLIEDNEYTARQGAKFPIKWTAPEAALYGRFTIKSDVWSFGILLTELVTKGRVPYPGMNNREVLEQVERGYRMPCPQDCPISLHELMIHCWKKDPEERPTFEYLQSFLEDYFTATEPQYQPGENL

Fes = Fes (UniProt P07332); assay: as above
Sequence of Fes (P07332 whole entry, looked up): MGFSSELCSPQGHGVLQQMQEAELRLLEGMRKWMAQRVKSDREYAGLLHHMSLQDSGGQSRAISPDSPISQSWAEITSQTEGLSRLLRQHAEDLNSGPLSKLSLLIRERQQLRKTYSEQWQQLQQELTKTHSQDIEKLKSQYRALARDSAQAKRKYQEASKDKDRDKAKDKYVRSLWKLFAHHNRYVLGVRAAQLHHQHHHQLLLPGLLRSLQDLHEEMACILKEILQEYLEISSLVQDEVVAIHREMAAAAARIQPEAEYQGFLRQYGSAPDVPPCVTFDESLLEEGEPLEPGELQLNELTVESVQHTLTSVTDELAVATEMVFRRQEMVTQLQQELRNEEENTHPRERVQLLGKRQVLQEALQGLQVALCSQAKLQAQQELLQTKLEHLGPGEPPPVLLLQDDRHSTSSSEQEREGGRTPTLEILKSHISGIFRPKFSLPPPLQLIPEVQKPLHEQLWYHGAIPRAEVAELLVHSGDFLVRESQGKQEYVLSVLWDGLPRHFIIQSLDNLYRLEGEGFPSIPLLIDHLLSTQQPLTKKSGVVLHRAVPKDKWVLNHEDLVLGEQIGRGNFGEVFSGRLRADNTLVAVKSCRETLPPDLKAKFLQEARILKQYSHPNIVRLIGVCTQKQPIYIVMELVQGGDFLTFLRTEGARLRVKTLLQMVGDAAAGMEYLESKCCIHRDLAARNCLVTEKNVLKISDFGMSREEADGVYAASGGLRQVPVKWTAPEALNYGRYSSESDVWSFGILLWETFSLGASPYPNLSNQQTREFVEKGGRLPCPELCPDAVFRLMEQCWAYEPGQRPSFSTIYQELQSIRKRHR

Jak2 = Jak2 (UniProt O60674); assay: as above
Sequence of Jak2 (O60674 whole entry, looked up): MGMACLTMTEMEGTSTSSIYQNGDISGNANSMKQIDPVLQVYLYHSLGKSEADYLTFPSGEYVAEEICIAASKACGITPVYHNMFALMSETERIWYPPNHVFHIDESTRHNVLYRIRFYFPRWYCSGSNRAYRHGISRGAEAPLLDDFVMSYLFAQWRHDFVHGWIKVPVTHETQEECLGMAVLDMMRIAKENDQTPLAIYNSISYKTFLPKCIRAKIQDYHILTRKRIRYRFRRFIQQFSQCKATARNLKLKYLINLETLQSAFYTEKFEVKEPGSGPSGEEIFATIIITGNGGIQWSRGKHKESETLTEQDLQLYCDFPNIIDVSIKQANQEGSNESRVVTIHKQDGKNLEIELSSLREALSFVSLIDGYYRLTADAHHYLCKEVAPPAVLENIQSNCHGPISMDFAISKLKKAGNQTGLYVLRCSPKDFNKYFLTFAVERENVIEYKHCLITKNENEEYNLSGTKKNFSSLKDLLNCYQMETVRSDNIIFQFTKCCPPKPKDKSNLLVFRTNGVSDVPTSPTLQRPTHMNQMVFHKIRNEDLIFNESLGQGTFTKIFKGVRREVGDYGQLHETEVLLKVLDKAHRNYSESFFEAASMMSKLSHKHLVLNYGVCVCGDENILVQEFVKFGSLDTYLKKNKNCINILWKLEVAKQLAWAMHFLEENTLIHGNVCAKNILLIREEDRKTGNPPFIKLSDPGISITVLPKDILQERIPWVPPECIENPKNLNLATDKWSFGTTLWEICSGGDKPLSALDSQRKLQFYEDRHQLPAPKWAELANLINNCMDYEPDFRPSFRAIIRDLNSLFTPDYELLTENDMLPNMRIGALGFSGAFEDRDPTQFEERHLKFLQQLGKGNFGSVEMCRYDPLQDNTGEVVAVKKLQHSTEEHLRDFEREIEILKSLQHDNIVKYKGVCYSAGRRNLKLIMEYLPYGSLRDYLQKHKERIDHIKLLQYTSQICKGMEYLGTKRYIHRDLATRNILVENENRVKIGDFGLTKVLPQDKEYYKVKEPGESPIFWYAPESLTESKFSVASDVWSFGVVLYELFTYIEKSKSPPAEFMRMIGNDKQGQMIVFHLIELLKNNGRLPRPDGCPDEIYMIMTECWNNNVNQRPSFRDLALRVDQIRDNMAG

SHP2-C SH2 = assay: SH2 binding enrichment of the phosphorylated peptide, bacterial display (enrichment ratio); higher = better substrate or ligand; peptides without Tyr show the background
Grb2 SH2 = Grb2 SH2 (UniProt P62993); assay: as above
Sequence of Grb2 SH2 (P62993 whole entry, looked up): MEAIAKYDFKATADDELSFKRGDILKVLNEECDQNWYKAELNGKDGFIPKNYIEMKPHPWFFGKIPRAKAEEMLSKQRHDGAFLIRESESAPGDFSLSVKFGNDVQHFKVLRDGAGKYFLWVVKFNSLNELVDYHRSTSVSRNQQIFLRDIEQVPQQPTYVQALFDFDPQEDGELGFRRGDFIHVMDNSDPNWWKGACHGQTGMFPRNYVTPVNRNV

c-Src SH2 = assay: as above
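Throughout, for SH2 binding enrichment of the phosphorylated peptide, bacterial display: peptide library displayed on the E. coli surface as eCPX fusions, selected cells deep-sequenced, score is each peptide's frequency after selection divided by its frequency in the input.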
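Throughout, for phosphorylation enrichment, bacterial display: 11-residue human phosphosite peptides and single-mutation variants displayed on the E. coli surface, counted by deep sequencing, each peptide's frequency after selection divided by its frequency in the unselected input library; frequency after pTyr selection over input frequency; kinase dosed for 20-30% of maximal phosphorylation in three min.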

Sequence of FGFR1 (P11362 whole entry, looked up): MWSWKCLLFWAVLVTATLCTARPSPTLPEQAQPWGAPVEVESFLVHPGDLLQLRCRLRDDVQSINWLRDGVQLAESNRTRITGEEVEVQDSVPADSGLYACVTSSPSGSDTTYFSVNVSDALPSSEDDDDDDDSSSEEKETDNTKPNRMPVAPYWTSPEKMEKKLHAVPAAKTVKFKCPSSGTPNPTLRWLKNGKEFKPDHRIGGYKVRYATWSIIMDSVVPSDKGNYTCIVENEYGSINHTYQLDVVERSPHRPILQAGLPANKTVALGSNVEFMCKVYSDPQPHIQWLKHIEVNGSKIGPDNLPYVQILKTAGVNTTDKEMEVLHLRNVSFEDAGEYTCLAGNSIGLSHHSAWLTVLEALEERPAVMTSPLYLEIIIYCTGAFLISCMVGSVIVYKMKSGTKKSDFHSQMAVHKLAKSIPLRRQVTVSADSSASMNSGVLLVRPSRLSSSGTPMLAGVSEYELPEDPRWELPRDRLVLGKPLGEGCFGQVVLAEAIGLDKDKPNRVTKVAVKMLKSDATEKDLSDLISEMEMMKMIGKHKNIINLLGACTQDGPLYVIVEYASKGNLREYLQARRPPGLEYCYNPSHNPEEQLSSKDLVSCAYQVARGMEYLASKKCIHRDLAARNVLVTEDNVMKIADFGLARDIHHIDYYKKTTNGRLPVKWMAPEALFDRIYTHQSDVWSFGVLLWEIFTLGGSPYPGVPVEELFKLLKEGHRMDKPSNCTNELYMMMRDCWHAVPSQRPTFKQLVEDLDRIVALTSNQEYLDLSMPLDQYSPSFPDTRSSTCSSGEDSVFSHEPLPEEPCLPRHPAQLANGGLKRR
Sequence of EPHB1 (P54762 whole entry, looked up): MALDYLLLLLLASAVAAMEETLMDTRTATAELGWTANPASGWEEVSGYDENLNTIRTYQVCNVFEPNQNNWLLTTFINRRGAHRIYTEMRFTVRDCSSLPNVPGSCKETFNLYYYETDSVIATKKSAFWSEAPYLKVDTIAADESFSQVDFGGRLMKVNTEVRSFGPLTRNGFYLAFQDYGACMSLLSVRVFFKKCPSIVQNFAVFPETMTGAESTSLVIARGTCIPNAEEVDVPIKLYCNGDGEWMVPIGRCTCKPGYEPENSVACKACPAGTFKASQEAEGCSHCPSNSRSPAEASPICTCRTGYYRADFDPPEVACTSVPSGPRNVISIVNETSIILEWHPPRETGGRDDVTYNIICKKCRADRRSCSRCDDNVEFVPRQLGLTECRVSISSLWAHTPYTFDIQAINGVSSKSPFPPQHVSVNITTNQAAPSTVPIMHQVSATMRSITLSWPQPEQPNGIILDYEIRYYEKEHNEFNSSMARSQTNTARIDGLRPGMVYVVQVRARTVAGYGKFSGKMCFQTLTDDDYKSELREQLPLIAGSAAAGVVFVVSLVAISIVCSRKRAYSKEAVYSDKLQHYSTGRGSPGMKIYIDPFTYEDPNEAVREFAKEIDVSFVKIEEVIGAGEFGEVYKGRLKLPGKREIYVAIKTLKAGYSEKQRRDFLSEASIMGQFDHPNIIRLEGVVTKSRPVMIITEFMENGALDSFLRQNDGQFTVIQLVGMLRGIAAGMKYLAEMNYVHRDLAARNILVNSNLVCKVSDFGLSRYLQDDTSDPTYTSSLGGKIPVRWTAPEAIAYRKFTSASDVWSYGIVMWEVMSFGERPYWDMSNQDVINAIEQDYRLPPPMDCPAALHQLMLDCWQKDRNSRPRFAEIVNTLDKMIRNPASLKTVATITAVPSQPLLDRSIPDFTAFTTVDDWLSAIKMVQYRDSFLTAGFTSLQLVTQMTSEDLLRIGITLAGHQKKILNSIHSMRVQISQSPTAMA
Sequence of Hck (P08631 whole entry, looked up): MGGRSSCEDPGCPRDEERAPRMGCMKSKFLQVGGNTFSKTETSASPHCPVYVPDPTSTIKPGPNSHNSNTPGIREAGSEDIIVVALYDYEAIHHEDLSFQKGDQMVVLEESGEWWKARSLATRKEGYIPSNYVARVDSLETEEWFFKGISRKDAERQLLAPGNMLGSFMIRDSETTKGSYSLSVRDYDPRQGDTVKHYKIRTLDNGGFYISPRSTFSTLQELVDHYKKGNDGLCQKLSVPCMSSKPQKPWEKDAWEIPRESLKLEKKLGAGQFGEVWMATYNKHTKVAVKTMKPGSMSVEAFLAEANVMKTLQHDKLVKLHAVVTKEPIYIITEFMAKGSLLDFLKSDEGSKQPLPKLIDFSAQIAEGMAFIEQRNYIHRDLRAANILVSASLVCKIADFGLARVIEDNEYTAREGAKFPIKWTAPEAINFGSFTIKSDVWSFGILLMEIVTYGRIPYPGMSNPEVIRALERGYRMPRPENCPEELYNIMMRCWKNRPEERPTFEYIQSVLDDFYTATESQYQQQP

Sequence	phosphorylation enrichment (FGFR1)	phosphorylation enrichment (c-Abl (mouse))	phosphorylation enrichment (FGFR3)	phosphorylation enrichment (EPHB2)	phosphorylation enrichment (Fer (mouse))	phosphorylation enrichment (c-Src)	phosphorylation enrichment (AncSZ)	phosphorylation enrichment (EPHB1)	phosphorylation enrichment (Hck)	phosphorylation enrichment (MERTK)	phosphorylation enrichment (Fyn)	phosphorylation enrichment (Fes)	phosphorylation enrichment (Jak2)	SH2 binding enrichment (SHP2-C SH2)	SH2 binding enrichment (Grb2 SH2)	SH2 binding enrichment (c-Src SH2)
GREYIYVDPMQ [PDGFRA_Y574_H570R]	12.7	5.21	8.94	8.24	1.21	1.86	3.12	6.9	2.05	4.27	1.73	0.801	1.17	0.718	0.95	0.53
DVVKDCAFVHM [RBM14_Y114_Y114C]	0.573	0.645	0.623	0.535	0.498	0.384	0.899	0.582	0.486	0.401	0.488	0.993	0.71	0.811	0.971	0.523
QSHKVYVQHLL [POR_Y604]	0.867	0.806	0.977	0.572	0.742	0.618	0.919	0.444	0.858	0.594	0.908	0.971	0.798	1	0.979	0.665
TEAGDYKLCFD [TMED1_Y103]	0.653	0.888	1.02	0.65	0.619	0.54	1.38	0.773	0.564	0.496	0.598	1.35	1.27	0.636	0.778	0.423
FSCLPCGRLAY [SLC52A2_Y305_Y305C]	0.481	0.584	0.54	0.485	0.351	0.45	0.832	0.431	0.431	0.688	0.425	0.772	0.724	1.34	1.46	1.54
DGQVNYEELVQ [CALM1_Y139_F142L]	0.819	0.781	0.735	0.826	0.639	0.614	1.47	1.04	0.594	0.659	0.704	1.25	1.43	0.733	0.835	0.745
KICDWYQRQRP [KRT14_Y151_R148C]	0.466	0.555	0.598	0.602	0.513	0.48	1	0.398	0.407	0.511	0.447	0.9	0.651	0.75	0.854	0.616
TEYSQYMRRKN [MAX_Y73_I71S]	0.548	0.418	0.508	0.563	0.443	0.523	0.674	0.476	0.562	0.558	0.536	0.622	0.507	0.411	0.653	0.397

— the supplement of paper PMC10065799, “High-throughput profiling of sequence recognition by tyrosine kinases and SH2 domains using bacterial peptide display” (eLife, 2023)
